Measured values reported in PMC5773591, “Structural basis of trans-synaptic interactions between PTPδ and SALMs for inducing synapse formation” (Nature Communications, 2018).

B1: human SALM5 LRR–Ig-His6 (residues 18–378) [human] / itself (parent)
chain: QICPKRCVCQILSPNLATLCAKKGLLFVPPNIDRRTVELRLADNFVTNIKRKDFANMTSLVDLTLSRNTISFITPHAFADLRNLRALHLNSNRLTKITNDMFSGLSNLHHLILNNNQLTLISSTAFDDVFALEELDLSYNNLETIPWDAVEKMVSLHTLSLDHNMIDNIPKGTFSHLHKMTRLDVTSNKLQKLPPDPLFQRAQVLATSGIISPSTFALSFGGNPLHCNCELLWLRRLSREDDLETCASPPLLTGRYFWSIPEEEFLCEPPLITRHTHEMRVLEGQRATLRCKARGDPEPAIHWISPEGKLISNATRSLVYDNGTLDILITTVKDTGAFTCIASNPAGEATQIVDLHIIKLP

Variants of: B1
Assay: SEC-MALS
Settings: with itself; read off a plot

Row | screen value | Variant
1 | 56 kDa | chain 1 N141A
